The test concerns the target HLA-A*02:01 (Homo sapiens, UniProt P04439, D140Y/D185E/D98H/E176V/E277Q/G131W/G231S/I119V/I121R/I166T/I218V/L300P/L318F/N151K/N90K/P208A/P217A/Q86G/Q94H/R138H/R169H/T345S). In words: MHC binding assay (UV-ligand exchange, beta2m ELISA, peptide exchange yield). The conditions noted are these: binding to HLA-A*02:01 ranged by peptide exchange yield, β2m ELISA. An excerpt: Candidate peptides for T cell based therapies according to the present invention were further tested for their MHC binding capacity (affinity). The individual peptide-MHC complexes were produced by UV-ligand exchange, where a UV-sensitive peptide is cleaved upon UV-irradiation, and exchanged with the peptide of interest as analyzed. Only peptide candidates that can effectively bind and stabilize the peptide-receptive MHC molecules prevent dissociation of the MHC complexes. To determine the yield of the exchange reaction, an ELISA was performed based on the detection of the light chain (β2m) of stabilized MHC complexes. The assay was performed as generally described in Rodenko et al. (Rodenko et al., 2006).
96 well MAXISorp plates (NUNC) were coated over night with 2 ug/ml streptavidin in PBS at room temperature, washed 4× and blocked for 1 h at 37° C. in 2% BSA containing blocking buffer. Refolded HLA-A*02:01/MLA-001 monomers served as standards, covering the range of 15-500 ng/ml. Peptide-MHC monomers of the UV-exchange reaction were diluted 100 fold in blocking buffer. Samples were incubated for 1 h at 37° C., washed four times, incubated with 2 ug/ml HRP conjugated anti-β2m for 1h at 37° C., washed again and detected with TMB solution that is stopped with […]. Absorption was measured at 450 nm. Candidate peptides that show a high exchange yield (preferably higher than 50%, most preferred higher than 75%) are generally preferred for a generation and production of antibodies or fragments thereof, and/or T cell receptors or fragments thereof, as they show sufficient avidity to the MHC molecules and prevent dissociation of the MHC complexes.

Regarding “4 (FLSQDIITV; listed as Homo sapiens) [compound 4]”, the “Peptide exchange (MHC class I binding score)” value (shortened to “Peptide exchange”) is “+++ (≥50 = +++)”.
The result for “5 (YLYPNLTRL; listed as Homo sapiens) [compound 5]” reads “++ (≥20% = ++)”.
Take “8 (GLASFKSFL; listed as Homo sapiens) [compound 8]”: the “Peptide exchange” value is “++ (≥20% = ++)”.
For the substance “10 (KLLQNNYGL; listed as Homo sapiens) [compound 10]”, the “Peptide exchange” value is listed as “++ (≥20% = ++)”.
For “11 (FIQTEAPKEV; listed as Homo sapiens) [compound 11]”, the “Peptide exchange” value was “++ (≥20% = ++)”.
Under “12 (ALDPSGNQLI; listed as Homo sapiens) [compound 12]” stands “++ (≥20% = ++)”; under “13 (KIMAQILTV; listed as Homo sapiens) [compound 13]”, “+++ (≥50 = +++)”.
Under “14 (ALLTETIFL; listed as Homo sapiens) [compound 14]” stands “++ (≥20% = ++)”.
In the case of “17 (ILAQQVHAL; listed as Homo sapiens) [compound 17]”, the “Peptide exchange” value is listed as “+++ (≥50 = +++)”.
Turning to “19 (LLDPGSLQL; listed as Homo sapiens) [compound 19]”, the “Peptide exchange” value is reported as “++ (≥20% = ++)”.
The result for “21 (RLIQGDQILSV; listed as Homo sapiens) [compound 21]” reads “++ (≥20% = ++)”; that for “23 (YIQEVVQYI; listed as Homo sapiens) [compound 23]”, “+++ (≥50 = +++)”; that for “24 (FTLGTTVFL; listed as Homo sapiens) [compound 24]”, “+++ (≥50 = +++)”.
Under “25 (LLVPAHLVAA; listed as Homo sapiens) [compound 25]” stands “++ (≥20% = ++)”; under “27 (SLSDLLVSL; listed as Homo sapiens) [compound 27]”, “+++ (≥50 = +++)”.
The result for “28 (FIADLVVGL; listed as Homo sapiens) [compound 28]” reads “++ (≥20% = ++)”; that for “30 (QLFYTKIFL; listed as Homo sapiens) [compound 30]”, “++ (≥20% = ++)”; that for “31 (VLFGLDPAVIKV; listed as Homo sapiens) [compound 31]”, “+++ (≥50 = +++)”.
For the substance “33 (FIADVVEKI; listed as Homo sapiens) [compound 33]”, the “Peptide exchange” value is “++ (≥20% = ++)”.
With “35 (VLHSLQTQL; listed as Homo sapiens) [compound 35]”, the “Peptide exchange” value is reported as “++ (≥20% = ++)”.
The result for “37 (VLAPVILML; listed as Homo sapiens) [compound 37]” reads “++ (≥20% = ++)”.
In the case of “38 (VLLDTILQL; listed as Homo sapiens) [compound 38]”, the “Peptide exchange” value is “+++ (≥50 = +++)”.
Regarding “39 (YLLNLNHLGL; listed as Homo sapiens) [compound 39]”, the “Peptide exchange” value is listed as “+++ (≥50 = +++)”.
The result for “40 (YIQEHLLQI; listed as Homo sapiens) [compound 40]” reads “+++ (≥50 = +++)”; that for “41 (GLLKTLQKL; listed as Homo sapiens) [compound 41]”, “++ (≥20% = ++)”.
Under “42 (VILDTGTIQL; listed as Homo sapiens) [compound 42]” stands “++ (≥20% = ++)”.
The result for “43 (YLKDELDEL; listed as Homo sapiens) [compound 43]” reads “+++ (≥50 = +++)”; that for “44 (ALFSFVTAL; listed as Homo sapiens) [compound 44]”, “+++ (≥50 = +++)”.
“45 (ALLGIPLTL; listed as Homo sapiens) [compound 45]”: the “Peptide exchange” value was “+++ (≥50 = +++)”.
For “46 (GLSEVLVQI; listed as Homo sapiens) [compound 46]”, the “Peptide exchange” value is listed as “+++ (≥50 = +++)”.
The result for “47 (TLAEVRAVQEI; listed as Homo sapiens) [compound 47]” reads “+++ (≥50 = +++)”.
Under “48 (VVASNIMEV; listed as Homo sapiens) [compound 48]” stands “++ (≥20% = ++)”; under “49 (VLIVEVPGV; listed as Homo sapiens) [compound 49]”, “+++ (≥50 = +++)”; under “50 (SLSDHIVLL; listed as Homo sapiens) [compound 50]”, “++ (≥20% = ++)”.
As to “51 (NLWPMILTL; listed as Homo sapiens) [compound 51]”, the “Peptide exchange” value was “+++ (≥50 = +++)”.
In the case of “52 (SILDAVQRV; listed as Homo sapiens) [compound 52]”, the “Peptide exchange” value was “++ (≥20% = ++)”.
Under “53 (FLLEIRQTL; listed as Homo sapiens) [compound 53]” stands “++ (≥20% = ++)”; under “54 (ALVAKGLVQA; listed as Homo sapiens) [compound 54]”, “++ (≥20% = ++)”.
Under “55 (YLALILPVL; listed as Homo sapiens) [compound 55]” stands “++ (≥20% = ++)”; under “56 (ILMDFSNSM; listed as Homo sapiens) [compound 56]”, “+++ (≥50 = +++)”.
The result for “57 (SLQKEILYL; listed as Homo sapiens) [compound 57]” reads “++ (≥20% = ++)”.
As for “58 (FLVDFEQSHL; listed as Homo sapiens) [compound 58]”, the “Peptide exchange” value was “++++ (≥75% = ++++)”.
Under “59 (SLKNNVVSV; listed as Homo sapiens) [compound 59]” stands “+++ (≥50 = +++)”; under “60 (ILWKDIEYV; listed as Homo sapiens) [compound 60]”, “+++ (≥50 = +++)”; under “61 (SLMGILLRI; listed as Homo sapiens) [compound 61]”, “++ (≥20% = ++)”.
Under “62 (VLAGPAFLVQL; listed as Homo sapiens) [compound 62]” stands “+++ (≥50 = +++)”; under “63 (GLIEDHFDVTV; listed as Homo sapiens) [compound 63]”, “++ (≥20% = ++)”.
For the substance “64 (LLAASVALA; listed as Homo sapiens) [compound 64]”, the “Peptide exchange” value is recorded as “++ (≥20% = ++)”.
As for “65 (IIYGGSVTGA; listed as Homo sapiens) [compound 65]”, the “Peptide exchange” value was “++ (≥20% = ++)”.
With “66 (TLLKTIIKV; listed as Homo sapiens) [compound 66]”, the “Peptide exchange” value is reported as “++ (≥20% = ++)”.
Under “67 (LLDVLAPLV; listed as Homo sapiens) [compound 67]” stands “++ (≥20% = ++)”; under “68 (YVLTQPPSV; listed as Homo sapiens) [compound 68]”, “++ (≥20% = ++)”.
The result for “69 (ILADLLPSL; listed as Homo sapiens) [compound 69]” reads “++ (≥20% = ++)”; that for “70 (SLTALRLLL; listed as Homo sapiens) [compound 70]”, “++ (≥20% = ++)”; that for “71 (ALDGHLYAV; listed as Homo sapiens) [compound 71]”, “+++ (≥50 = +++)”.
Under “72 (YSLEKVFGI; listed as Homo sapiens) [compound 72]” stands “++ (≥20% = ++)”; under “73 (GLDGIPFTV; listed as Homo sapiens) [compound 73]”, “+++ (≥50 = +++)”; under “74 (GLFHKQVTV; listed as Homo sapiens) [compound 74]”, “+++ (≥50 = +++)”.
Take “75 (FLIKSINLV; listed as Homo sapiens) [compound 75]”: the “Peptide exchange” value is listed as “+++ (≥50 = +++)”.
The result for “76 (VLADDHLIEV; listed as Homo sapiens) [compound 76]” reads “++ (≥20% = ++)”.
Under “77 (SLIKHKIML; listed as Homo sapiens) [compound 77]” stands “++ (≥20% = ++)”.
Take “78 (ALLDTVVQA; listed as Homo sapiens) [compound 78]”: the “Peptide exchange” value is recorded as “++ (≥20% = ++)”.

The record behind these values is US12059458B2, “Peptides and combination of peptides and scaffolds for use in immunotherapy against renal cell carcinoma (RCC) and other cancers” (Immatics Biotechnologies GmbH, priority 2015, dated 2024).
